B1: N142P|I144P|N377P, Q8GB52 (parent)
chain: MLKKVLSCCIAATFGIYSASSLAQSSVINSTENSQQPIAPLVLASSDDAITDRYIVVLKQPQMLMNDAAGLQQFTQQTVGLMANSFSIKTDDVFDSSIIGFVANLDALQLKQLRRDSRVEYIEQDQILSIDPVVSNEAVQSNAIWGLDRIDQRNLPLDRNYNANFDGFGVTAYVIDTGVNNNHEEFGGRSVSGYDFVDNDADSSDCNGHGTHVAGTIGGSQYGVAKNVNIVGVRVLSCSGSGTTSGVISGVDWVAQNASGPSVANMSLGGGQSTALDSAVQGAIQSGVSFMLAAGNSNADACNTSPARVPSGVTVGSTTSSDSRSSFSNWGSCVDLFAPGSQIKSAWYDGGYKTISGTSMATPHVAGVAALYLQENNGLTPLQLTGLLNSRASENKVSDTRGTTNKLLYSLADSGCEPDCGGPTPGPDPDGKLVSGVPVNGLSGSRGQKDYFYMDLQQGQQLTVVTIGGTGDADLYLRFGDKPTLNTWDCRPYRSGNSETCTVNVTQSGRYHVMLNAYSAYSGLTLQANF

Variants of: B1
Conditions: Vibrio sp. PA-44, pH 8.6, Thermal, structure 1SH7, whole UniProt chain shown
[1] = CD, Glycine 25 mM, NaCl and CaCl2 100 mM and 15 mM
[2] = CD, glycine, Nacl / Cacl2 100000 / 15000, transition: 2, reversible: no
[3] = DSC, Glycine 25 mM, NaCl and CaCl2 100 mM and 15 mM
[4] = DSC, glycine, Nacl / Cacl2 100000 / 15000, transition: 2, reversible: no

MLKKVLSCCIAATFGIYSASSLAQSSVINSTENSQQPIAPLVLASSDDAITDRYIVVLKQPQMLMNDAAGLQQFTQQTVGLMANSFSIKTDDVFDSSIIGFVANLDALQLKQLRRDSRVEYIEQDQILSIDPVVSNEAVQSPAPWGLDRIDQRNLPLDRNYNANFDGFGVTAYVIDTGVNNNHEEFGGRSVSGYDFVDNDADSSDCNGHGTHVAGTIGGSQYGVAKNVNIVGVRVLSCSGSGTTSGVISGVDWVAQNASGPSVANMSLGGGQSTALDSAVQGAIQSGVSFMLAAGNSNADACNTSPARVPSGVTVGSTTSSDSRSSFSNWGSCVDLFAPGSQIKSAWYDGGYKTISGTSMATPHVAGVAALYLQENPGLTPLQLTGLLNSRASENKVSDTRGTTNKLLYSLADSGCEPDCGGPTPGPDPDGKLVSGVPVNGLSGSRGQKDYFYMDLQQGQQLTVVTIGGTGDADLYLRFGDKPTLNTWDCRPYRSGNSETCTVNVTQSGRYHVMLNAYSAYSGLTLQANF [N142P I144P N377P]
Tm [1]: 68.8 °C
change of melting temperature, mutant - wild type (higher = more stable) [1]: 6.9 °C
Tm [2]: 68.8 °C
change of melting temperature, mutant - wild type (higher = more stable) [2]: 6.9 °C
Tm [3]: 72 °C
change of melting temperature, mutant - wild type (higher = more stable) [3]: 8.1 °C
unfolding enthalpy (calorimetric) [3]: 163 kcal/mol
Tm [4]: 72 °C
change of melting temperature, mutant - wild type (higher = more stable) [4]: 8.1 °C
unfolding enthalpy (calorimetric) [4]: 162 kcal/mol

MLKKVLSCCIAATFGIYSASSLAQSSVINSTENSQQPIAPLVLASSDDAITDRYIVVLKQPQMLMNDAAGLQQFTQQTVGLMANSFSIKTDDVFDSSIIGFVANLDALQLKQLRRDSRVEYIEQDQILSIDPVVSNEAVQSPAPWGLDRIDQRNLPLDRNYNANFDGFGVTAYVIDTGVNNNHEEFGGRSVSGYDFVDNDADSSDCNGHGTHVAGTIGGSQYGVAKNVNIVGVRVLSCSGSGTTSGVISGVDWVAQNASGPSVANMSLGGGQSTALDSAVQGAIQSGVSFMLAAGNSNADACNTSPARVPSGVTVGSTTSSDSRSSFSNWGSCVDLFAPGSQIKSAWYDGGYKTISGTSMATPHVAGVAALYLQENPGLTPLQLTGLLNSRASENKVSDTRGTPNKLLYSLADSGCEPDCGGPTPGPDPDGKLVSGVPVNGLSGSRGQKDYFYMDLQQGQQLTVVTIGGTGDADLYLRFGDKPTLNTWDCRPYRSGNSETCTVNVTQSGRYHVMLNAYSAYSGLTLQANF [N142P I144P N377P T404P]
Tm [1]: 72.1 °C
change of melting temperature, mutant - wild type (higher = more stable) [1]: 10.2 °C
Tm [2]: 72.1 °C
change of melting temperature, mutant - wild type (higher = more stable) [2]: 10.2 °C
Tm [3]: 77.2 °C
change of melting temperature, mutant - wild type (higher = more stable) [3]: 13.3 °C
unfolding enthalpy (calorimetric) [3]: 164 kcal/mol
Tm [4]: 77.2 °C
change of melting temperature, mutant - wild type (higher = more stable) [4]: 13.3 °C
unfolding enthalpy (calorimetric) [4]: 163 kcal/mol

MLKKVLSCCIAATFGIYSASSLAQSSVINSTENSQQPIAPLVLASSDDAITDRYIVVLKQPQMLMNDAAGLQQFTQQTVGLMANSFSIKTDDVFDSSIIGFVANLDALQLKQLRRDSRVEYIEQDQILSIDPVVSNEAVQSPAPWGLDRIDQRNLPLDRNYNANFDGFGVTAYVIDTGVNNNHEEFGGRSVSGYDFVDNDADSSDCNGHGTHVAGTIGGSQYGVAKNVNIVGVRVLSCSGSGTTSGVISGVDWVAQNASGPSVANMSLGGGQSTALDSAVQGAIQSGVSFMLAAGNSNADACNTSPARVPSGVTVGSTTSSDSRSSFSNWGSCVDLFAPGSQIKSAWYDGGYKTISGTSMATPHVAGVAALYLQENNGLTPLQLTGLLNSRASENKVSDTRGTPNKLLYSLADSGCEPDCGGPTPGPDPDGKLVSGVPVNGLSGSRGQKDYFYMDLQQGQQLTVVTIGGTGDADLYLRFGDKPTLNTWDCRPYRSGNSETCTVNVTQSGRYHVMLNAYSAYSGLTLQANF [N142P I144P T404P]
Tm [1]: 69.2 °C
change of melting temperature, mutant - wild type (higher = more stable) [1]: 7.3 °C
Tm [2]: 69.2 °C
change of melting temperature, mutant - wild type (higher = more stable) [2]: 7.3 °C
Tm [3]: 73.6 °C
change of melting temperature, mutant - wild type (higher = more stable) [3]: 9.7 °C
unfolding enthalpy (calorimetric) [3]: 167 kcal/mol
Tm [4]: 73.6 °C
change of melting temperature, mutant - wild type (higher = more stable) [4]: 9.7 °C
unfolding enthalpy (calorimetric) [4]: 166 kcal/mol

— FireProtDB (doi:10.1038/s41598-020-57873-3)
